# Test results reported in patent US6225451.
# Test system: T1, CHD1.ZnF3-8 (CHD1 zinc fingers 3 through 8) (Homo sapiens)
# T1 sequence: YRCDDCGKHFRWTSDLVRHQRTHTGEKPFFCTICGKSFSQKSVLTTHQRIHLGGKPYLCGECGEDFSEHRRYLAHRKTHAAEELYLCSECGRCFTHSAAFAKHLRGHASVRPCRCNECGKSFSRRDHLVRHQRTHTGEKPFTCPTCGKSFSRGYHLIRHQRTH
# Assay: EMSA
# Settings: apparent, upper limit from protein dilution; poly d(I:C) does not compete
substance,measurement,value
ApoAIV promoter fragment -573 to -165,Kd,10 nM
